According to the RNAGym collection of RNA variant scans (doi:10.1073/pnas.2313332121):

B1: TPR t1 (parent)
chain: GACCAAUCUGCCCUCAGAGCUCGAGAACAUCUUCGGAUGCAGAGGAGGCAGGCUUCGGUGGCGCGAUAGCGCCAACGUCCUCAACCUCCAAUGCAUCCCACCACAUGAUGAUGCCUGAAGAGCCUUGGUUUUUUG

Variants of: B1
Experiment: polymerase ribozyme fitness, log enrichment relative to wild type (log ratio); higher = more active; in vitro selection for triplet polymerase activity
In short: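 Fitness measures genotype enrichment against wild-type enrichment on a logarithmic scale, with inverse-variance-weighted averaging of replicates. The logarithm is base 2, and genotypes were kept only with ≥10 input reads and ≥1 read per output in Illumina sequencing. The sequenced libraries came from one triplicate in vitro selection round, including frozen incubation at −7 °C, of PCR-built, transcribed mutant libraries of each subunit of a heterodimeric triplet polymerase ribozyme.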

Variant | polymerase ribozyme fitness (log ratio)
A43C G57U G77U | -2.72
A43U G52U A68G | -4.56
G42U G52U A105C | -6.66
A43G U55C C64U C72G | -2.14
A43C G61A C101G | -4.23
A41U G110U U125A | -4.14
G42U C53U C62U G110A | -3.9
G42U G57C C104U U125G | -1.31
A43G C72A | -1.13
G42C G57A A105U | -5.05
G42C A111G A121C | -1.57
A43G C73U C79A U96G A118U | -4.39
A43G G61U C82G | -2.27
A43U C49A | -1.86
G42U C80U | -2.21
G42U C62U | -1.69
G42C G120A | -1.29
G44C A50G G52U U54C U92C C124A | 0.995
A43U G63U G113U A119G | -2.34
A41U G48U C76A | -1.72
A43U G71A | -2.46

Variant | polymerase ribozyme fitness (log ratio)
G42U C101U | -1.21
G42C G93A C97U C115U | -5.15
G44A C62A A111G | -3.93
G42C G127U | -2.05
A43U G110A | -3.03
G44A A103G A105U G117A | -6.51
G42C G77U | -1.59
G42C G63A | -3.47
G44A C53A C56A | -1.42
G42A G45U C82U C89U A90U A118G | -1.67
G44A A121U | 1.03
A41U G45C G60A C62U | -2.39
G44A A46U G47C A74G | -1.99
G42U G120U | -1.31
G42C A46U G60C | -2.77
A43U G47U C72U U92A C104G C114G | -7.84
G44A C49U U106G | -5.12
A43U G44U G48A G122A | -2.63
A41U C123G | 0.0535
A43G U55C C62U U109A G135C | -5.8
G42U C88G C101A G120C | -3.53

Variant | polymerase ribozyme fitness (log ratio)
G42A G61U | -2.48
A43G G52C C53A G61A U96C | -2.66
G42U U55G G117A | -3.02
G44A U59A G60U C89U A91G C104A C114U | -6.21
A43U G113A | -1.27
G42U C123A | -1.18
G42A A95C | -1.94
A43U G60C C82A G113A G128C | -4.68
A43U A46G U55G | -1.34
G42U G52C U55A | -2.16
A43U C56G C114U | -2.92
G42U G45A G110C | -5.34
G42A G45U A68G C82U C89U A90U A118G | -4.62
A43C U59C C80A | -6.52
A41U G57U | -1.23
G42U G47A | -1.67
G44A C49G U55G C85U U106G G107C C115G | -6.1
G42U U59A C62G C88G A90U C98U | -7.74
A43C G61U C123G | -1.3
G42A C85U | -2.41
G42A C72G C88G | -3.92

Variant | polymerase ribozyme fitness (log ratio)
A41U G63U | -2.33
G44A C88U | -1.23
G42U G61C | -3.59
A43U G93C G117A | -4.2
G42U G47C C102A U112G G120U | -6.76
G42A G63C U133G | -3.43
A43U G44U A74U U87A | -5
G44A C72U | -1.55
G44A C72G | -1.16
A43C C62U A84G | -5.86
G42A G60A | -2.03
G44A U96G | -2.12
A43G C88G G113U A121G | -3.25
G42A C72G C89G | -3.84
G42A C72A C114U | -2.37
A43C C53U | -2.24
A41U G57U C86G C123U | -4.13
G44A U59A G63A C89G C115A C124A U129A | -5.52
G44A G52U G122A C123U C124G U130G | -1.46
G42C A43C G71A U81A G120U | -6.28
